Measured values reported in publication PMC5870375, “Amyloid-beta modulates microglial responses by binding to the triggering receptor expressed on myeloid cells 2 (TREM2)” (Molecular Neurodegeneration, 2018).

Molecular target: T1, oligomeric amyloid-β 1–42 (UniProt P05067 672-713)
T1 construct: amyloid-beta 1-42, cut product of the amyloid precursor protein (APP); numbers count on: the Aβ peptide; Heterogeneous mixture of low-n and high-n oligomers, prepared without separation of monomeric Aβ; also called oAβ_(1–42); oAβ; source: synthetic peptide, bought: AnaSpec (AS-20276); oligomers made by incubation at 22 °C for 16 h, then 4 °C for 24 h, supernatant after 16,000×g
Assay: ELISA; solid phase binding assay: 96-well plate coated with 100 nM oAβ1-42 in PBS overnight at 4 °C, blocked with 4% BSA; purified Fc or sTREM2-Fc proteins in PBST with 0.5% BSA, 30 min at 37 °C; detected with biotinylated anti-Fc antibody, avidin-HRP, TMB, read at 620 nm
Details: both partners purified

binding result | Binder
binds | sTREM2-Fc fragment carrying residues 1–131 (Fc fusion, human, UniProt Q9NZC2 19-131, looked up, signal peptide in the construct) HNTTVFQGVAGQSLQVSCPYDSMKHWGRRKAWCRQLGEKGPCQRVVSTHNLWLLSFLRRWNGSTAITDDTLGGTLTITLRNLQPHDAGLYQCQSLHGSEADTLRKVLVEVLAD
binds | sTREM2-Fc fragment carrying residues 1–151 (Fc fusion, human, UniProt Q9NZC2 19-151, looked up, signal peptide in the construct; human TREM2, C-terminally truncated extracellular domain, residues 1-151) HNTTVFQGVAGQSLQVSCPYDSMKHWGRRKAWCRQLGEKGPCQRVVSTHNLWLLSFLRRWNGSTAITDDTLGGTLTITLRNLQPHDAGLYQCQSLHGSEADTLRKVLVEVLADPLDHRDAGDLWFPGESESFE
binds | sTREM2-Fc fragment carrying residues 1–71 (Fc fusion, human, UniProt Q9NZC2 19-71, looked up, signal peptide in the construct; human TREM2, C-terminally truncated extracellular domain, residues 1-71) HNTTVFQGVAGQSLQVSCPYDSMKHWGRRKAWCRQLGEKGPCQRVVSTHNLWL
binds | HNTTVFQGVAGQSLQVSCPYDSMKHWGRRKAWC (Fc fusion, human, UniProt Q9NZC2 19-51, looked up, signal peptide in the construct; human TREM2, C-terminally truncated extracellular domain, residues 1-51) [sTREM2-Fc fragment carrying residues 1–51]
binds | sTREM2-Fc fragment carrying residues 1–111 (Fc fusion, human, UniProt Q9NZC2 19-111, looked up, signal peptide in the construct) HNTTVFQGVAGQSLQVSCPYDSMKHWGRRKAWCRQLGEKGPCQRVVSTHNLWLLSFLRRWNGSTAITDDTLGGTLTITLRNLQPHDAGLYQCQ
binds | sTREM2-Fc fragment carrying residues 1–91 (Fc fusion, human, UniProt Q9NZC2 19-91, looked up, signal peptide in the construct; human TREM2, C-terminally truncated extracellular domain, residues 1-91) HNTTVFQGVAGQSLQVSCPYDSMKHWGRRKAWCRQLGEKGPCQRVVSTHNLWLLSFLRRWNGSTAITDDTLGG
